# Assay results reported in the DeepSol protein solubility set.
# Assay: soluble on expression in E. coli; label from the status in PepcDB or PDB records
row,Sequence,soluble on expression in E. coli
1,MRYHIALVGRRNSGKSSLLNMLAGQQISIVSDIKGTTTDAVAKAYELQPLGPVTFYDTAGIDDEGTLGAMRVSATRRVLFRSDMALLVVDEQGLCPSDMALIDEIRQLQMPILMVFNKADICTPKAEDIAFCQNQSLPFIVVSAATGLAGKQLKQLMVELAPAEYKQEPLLAGDLYQAGDVILCVVPIDMAAPKGRLILPQVQILREALDRSAIAMVVKETELAQALSVVTPKLVISDAQAIKQVAAIVPDAVPLTTFSTLFARFKGDLAALATGADALDTLQDGDKVLISEACSHNVQEDDIGRVKLPRWINSYTGKQLEFVVTSGHDFPNDLEQYALVIHCGACMFNRNEMLRRIRECQRRQVPITNYGVAISKLQGVLPRVLTPFNRNPQQLEHHHHHH,soluble
2,MRYSSRMPGSVMPGAGAHPRIPQVQTSVANSQILGYLGRALSLEFTAGQHYLAQASLAKFRQEISYAEGFITLANEEFQHANLITDRMVAQGALPAGSVLRPAGSANNIAEALKSCEEREIALIQLYTEATQYCANMGAQEDHALFSRLLEEEQSQLMRVQAWLQDYFQMMANTYQPDRSFV,not soluble
3,MSAAGDLRRRARLSRLVSFSASHRLHSPSLSDEENLRVFGKCNNPNGHGHNYKVVVTVHGEIDPVTGMVMNLTDLKEYMEEAIMKPLDHKNLDLDVPYFADAVSTTENVAVYIWESLQKLLPVGALYKVKVFETDNNIVVYKGE,soluble
4,MSAESERKTETIPEWKQEEVDAIVEMIESYESVGVVNIAGIPSRQLQDMRRDLHGTAELRVSRNTLLERALDDVDDGLEDLNGYITGQVGLIGTDDNPFSLFQELEASKTPAPIGAGEVAPNDIVIPEGDTGVDPGPFVGELQSVGADARIQEGSIQVLSDSTVLDTGEEVSQELSNVLNELGIEPKEVGLDLRAVFADGVLFEPEELELDIDEYRSDIQAAAGRAFNLSVNADYPTATTAPTMLQSDRGNAKSLALQAAIEDPEVVPDLVSKADAQVRALASQIDDEEALPEELQGVEADVATEEPTDDQDDDTASEDDADADDAAEEADDDDDDDEDAGDALGAMF,soluble
5,MSAFKKSLLVAGVAMILSNNVFADEGHGIVKFKGEVISAPCSIKPGDEDLTVNLGEVADTVLKSDQKSLAEPFTIHLQDCMLSQGGTTYSKAKVTFTTANTMTGQSDLLKNTKETEIGGATGVGVRILDSQSGEVTLGTPVVITFNNTNSYQELNFKARMESPSKDATPGNVYAQADYKIAYE,soluble
6,MSAKAISEQTGKELLYKFICTTSAIQNRFKYARVTPDTDWARLLQDHPWLLSQNLVVKPDQLIKRRGKLGLVGVNLTLDGVKSWLKPRLGQEATVGKATGFLKNFLIEPFVPHSQAEEFYVCIYATREGDYVLFHHEGGVDVGDVDAKAQKLLVGVDEKLNPEDIKKHLLVHAPEDKKEILASFISGLFNFYEDLYFTYLEINPLVVTKDGVYVLDLAAKVDATADYICKVKWGDIEFPPPFGREAYPEEAYIADLDAKSGASLKLTLLNPKGRIWTMVAGGGASVVYSDTICDLGGVNELANYGEYSGAPSEQQTYDYAKTILSLMTREKHPDGKILIIGGSIANFTNVAATFKGIVRAIRDYQGPLKEHEVTIFVRRGGPNYQEGLRVMGEVGKTTGIPIHVFGTETHMTAIVGMALGHRPIP,soluble
7,MSAKKERVDVLLVERGLIETREKAKRAIMAGLVYANEMRLDKPGEKIPQDTEITVKGQVMPYVSRGGYKLEKALETFHLDLQDKVMIDIGSSTGGFTDCALQNGAKLSYALDVGYNQLAWKLRQDERVVVMERTNFRYVTPADLERGLPQFASIDVSFISLKLILPVLKTMLMPNGDVAALIKPQFEAGREQVGKKGIVRDRKVHEAVVEMIVDFAIKEGYDVEGLTFSPITGGDGNIEFLIHLKWHGERENGENHSPVSVEQVVTEAHDVLKQKGKGE,not soluble
8,MSARMDNDTAALLERIRSDWARLNHGQGPDSDGLTPSAGPMLTLLLLERLHAALGREIERTYAASGLNAAGWDLLLTLYRSAPPEGLRPTELSALAAISGPSTSNRIVRLLEKGLIERREDERDRRSASIRLTPQGRALVTHLLPAHLATTQRVLAPLSAQEQRTLEELAGRMLAGLEQGV,soluble
9,MSATMQSETVYDAVIVGGGVAGGTAALLLRQRGCSVALLEKRPLDYYKALCTHFIQPSAVPILRRVGLDHVLEPEASTRTKASFVTSEGVIDTPGGYTDDAATAYAYNLERRVLDPALRARARSEGVDLLDEATVTACRLQADGLWRVEADADTDTDGARHPRVLRARVVIAADGRRSQMAQWLNNAAVQHDNQRAAVFAQFEGIAVPGGNRSLFILAEREMGFVYPLTGGRTLLSAYVEKDRAAQWRHSADAGAPLLDFFARLAPGLDLAGARLLTPVLGYADYPSQFRQPVCGAVPFIGDAALSLDPMSGVGCGFAMEAAALLDEHLGPALQAQGNSAIGPALDAYASRFDTHFAAHARGIVADSLIAKQPAAQAALYRAVIADPALQRDYLALTGRLITPQAFQRAYFSAHVRSQRAATTHAHPPERASELSLEHHHHHH,not soluble
10,MSAVKKQRIDLRLTDDDKSMIEEAAAISNQSVSQFMLNSASQRAAEVIEQHRRVILNEESWTRVMDALSNPPSPGEKLKRAAKRLQGM,soluble
11,MSCALLIENLTCQYDAQTVLKSLSLQVNPGEIVCLLGASGCGKTTLLKAIAGLLPLASGQLSLNCVTLDDGKRWLPPEQRNIGMIFQDYALFPHLTVAQNVGFGLDAMPAKQKEAKIAEMLALVHLDAFAERYPHQLSGGQQQRVAIARALAYKPDLLLLDEPFSNIDTQVRHELIIEIRKIFKQQGVTAIFVTHSREEAFAFADKMAVMNRGVIEQYGTAAELYYQPSSQFVADFLGGGSYLSAKRISETQYQTALGVVEAIARQPIAVEAECKLLLRPQQVQIRAEEESSVTVTEQQFMGDHCRYLIDAHGTQLIATSSQPLELGQAVSVNIDTQGVLAFA,not soluble
12,MSCIAAIAAAEGTGSRMAYVSLPRRLVTLLMISTVMVSCSAEGLVPPAEVDGTTRVSAIRSSRQQGYSAPSGAVNQVERAGQGADYPSTMSQPMPEPYASQDPLLQSPQAGQGYSTLDSQHQARMAASGHTNMPAQPMQSQTMQSQTMQAQTMQAQTMPGQQLASNQNAEGEGGVNMDSMLGVEPVRGLAEEQDADIAEGASAQPVVDGIGTDNPVAVSPPRRQQGASQSRLIPPPPVGSSSRRQPVEEVAMLMPNDPMAGGPMQSNRSMPPGVMPSSEVACRSELRRLGVAFRDVARIADGPTCGIDYPIELSGLASGVAIRPAVKLNCQVTLAFAKWVKFELVPSSRFRYLSGVGRITPMGGYSCRKMNSRSSNPWSEHARGNAIDIGTITLKNGKEIDVRSKSFFAFREKALLKAVRSDSCKYFSTVLGPGSDPNHWNHFHFDLRTRKSGYRHCD,not soluble
13,MSDARLAELAAAVGLQLDWQDANGRPQRVDPEVQRGLLEALGYPAQSPQQIEQSLAALARLREDSANLGLLVGECGQPLEQALGPAGTPGELVYEDGTRIALRLDAEGRLPAQARSGYAQLSLEQREWAVAMAPPSCPSLASLAPGRSRRWGLAAQVYALRRPGDGGLGDSAALEDLLRSAARHGADALAISPLHALAEANGHAYSPYSPSSRLFFNVLHAAPATILGAAAVEQAIRRAGLAAEMARLESLELIDWTAAADLRMRLLRQLHRDFTERASPLRHDLAEFRREAGEALLHHCRFETLQAHLGAGPDWRRWPEPLRRPGEPAVAAFCADHAEEVDFRAFGQWLTQRCLQHAQRQAREAGMAIGLVADLAVGADGGGSQAWSRQEELLAEVNVGAPPDILNQSGQDWGVSAFNPEGLRRHGYRAFREMLRANLAWPGGLRIDHVMGLQRLWLIPRGQPPHAGAYLRYPQRELLRLLALEASRASALVIGEDLGTVPEGLREELARRQVLGTRVLLFERRGERFVPPAQWPADAMATTSTHDLPSLSGWWRGRDIHWRGRAGHRSAEECAADLELRAEERRALAASLEPPVDPDPAAEVPLDACIGYVGATPAPLVLLPLEDALGSLEQPNLPGPGDAHPNWRRRWPENAAQMLGTPQVDRRLRLLERSRRDAEEA,not soluble
14,MSDEGLAPGKRLSEIRQQQGLSQRRAAELSGLTHSAISTIEQDKVSPAISTLQKLLKVYGLSLSEFFSEPEKPDEPQVVINQDDLIEMGSQGVSMKLVHNGNPNRTLAMIFETYQPGTTTGERIKHQGEEIGTVLEGEIVLTINGQDYHLVAGQSYAINTGIPHSFSNTSAGICRIISAHTPTTF,not soluble
15,MSDEREVAEAATGEDASSPPPKTEAASDPQHPAASEGAAAAAASPPLLRCLVLTGFGGYDKVKLQSRPAAPPAPGPGQLTLRLRACGLNFADLMARQGLYDRLPPLPVTPGMEGAGVVIAVGEGVSDRKAGDRVMVLNRSGMWQEEVTVPSVQTFLIPEAMTFEEAAALLVNYITAYMVLFDFGNLQPGHSVLVHMAAGGVGMAAVQLCRTVENVTVFGTASASKHEALKENGVTHPIDYHTTDYVDEIKKISPKGVDIVMDPLGGSDTAKGYNLLKPMGKVVTYGMANLLTGPKRNLMALARTWWNQFSVTALQLLQANRAVCGFHLGYLDGEVELVSGVVARLLALYNQGHIKPHIDSVWPFEKVADAMKQMQEKKNVGKVLLVPGPEKEN,soluble
16,MSDPLLQLISTGLGLWIRSRCDQVGDLDLTLQGSSLGLMRGRLQGAVLSARDVRFEGLPLHHAEISSGPIQLDLTWLRPGRMLALKDPFQVKGTVSMPGQPLGDALLSERWRELGDWIAEQLMGLKPLGQLRIENDELELVASVAAQRDPIRKRFRLRAEAGTVVLSASDSPETRAVLPMDPAITITDATLGAGLLTLQGHAIVTPE,not soluble
17,MSDSASNTENSIQIEIFPSRILSPETAQKLLVELSQVDGILRVMIQGNRLPEKVGYGPGTGEKVEHPLRKPIQIGGQVIELRVSVGRIRLEVLNAEVKENVRAVCEKMLPFSFEFREGHFLRRKPTVTDYAKLGPEADPRLLGMVDPKAKINQLVFIEKQEKEDDEDKDELEHHHHHH,soluble
18,MSDSDDNAYSDYLGNRRAALQKKRQPVRVCESDDSDDDFDTSGPSPMRKKTRETQLFPDDSDDDECVEVEKETYSQKVRHEIDDVEEAYRRSIYKRETVIHAPVEKNNVISGLLKICEGWDEAAKSGAQPEVEDVKDDSDADESSIAAENFPVTVVILDCESHGNDMKSRHDIFLESTFSEIRRIYATKWGCPVSCVVFSHNGKTIDTYTTPQSLGWRPMTLPHPLIEASKEAGEPAEVFTIENSPDSFTIKVLLASRRKPVQVEAAKDTTIQEILQKVIDAFVEDKEENIPSIESMKVVFDNERIKDVNITCEQLDLEDDDCIEVYF,not soluble
19,MSDSDIPSSTLYKDNVDWKDITPIYPSKEEEVAVKIAVTEDFTDAFAYFRAILIKNEKSDRVMALLEDCIRLNPANYTVWQYRRVCLTELGWDLKKEMRYLSDIIQESPKNYQVWHHRRFIVETIGESAVNDELHFCSEVIRDENKNYHAWQHRQWVVRTFKVPLEKELTFALHMLLLDNRNNSAYNYRYFLMTLYDKTEDASQLDIEINLAKKFIENIPNNESAWNYLAGLLITNGVTSNSDVVSFVEDLYETTPEEKRSPFLLAFIADMMLENIENQKSAEESAGRAKKLYKDLQSIDPVRVNYYRHQSLLAQTMLIKAQTKVTAK,not soluble
20,MSDTADSLSARGIPKSELIEDVESWLTKEKLSIEEAEVVLREKYGKYKYVESSMLAQKVRMSEKIPEFENSLSIIDTLIAKRAADESFETTFLLSDDVYTKATVQKPEKVSIWLGANVMVEYDLENARKLLDKNRGSVQKVVDELTNELSYIKDQITTTEVNMSHIVNFGVNKRRAALAVNNGAK,not soluble
